Where no end group is shown, it is not given here.
Columns and labels:
[1] = test system: activated recombinant MAP kinase; test: Phosphorylation of GFP Erk sensors by MAP kinase, ^32P incorporation; assay type: biochemical; conditions: for ^32P-Incorporation (CPM): 10 μM substrate, 100 ng MAP kinase, 30 minutes at 30° C., mean ± standard deviation of triplicates
Text: Experiments were terminated and samples processed as described previously in subsection D.4. Results presented in Table X represent means of triplicate determinations ±standard deviations of ^32P-incorporation in washed pellets as described earlier.

[2] = biological target: T1, protein kinase A catalytic subunit (Mus musculus, UniProt P05132); test: Change in fluorescence after incubation with excess protein kinase A; assay type: biochemical; conditions: one hour at 30° C., 488 nm excitation, 511 nm emission; for % Change in fluorescence upon phosphorylation: more drastically altered N-terminal sites, excess PKA catalytic subunit; for % Change in fluorescence: excess protein kinase A catalytic subunit
Description: (§1) Numbers prior to the sequence indicate amino acid position in wild type GFP (SEQ ID NO:2) where phosphorylation motif starts. The relative rates of phosphorylation compare the rate of phosphorylation of the given phosphorylation motif with the endogenous protein kinase A phosphorylation motif in Aequorea GFP (HKFSV, SEQ ID NO:1) measured by incorporation of ^32P after incubation of the purified substrate and protein kinase A catalytic subunit in the presence of ^32P-labeled ATP using 3 micrograms of GFP, 5 micrograms protein kinase A catalytic subunit, for 10 minutes at 30° C. in standard phosphorylation buffer (20 mM MOPS, pH 6.5, 100 mM KCl, 100 micromolar ATP, 3 mM MgC2, 1 mM DTT and 100 microCi ^32P-labeled ATP. Reactions were terminated by blotting onto phosphocellulose paper and washing with 10% phosphoric acid. The percent change in fluorescence represents the increase in fluorescence (475 nm excitation, 510 nm emission) observed in each purified protein resulting from incubation with excess protein kinase A catalytic subunit for one hour at 30° C. using the same phosphorylation conditions as described above except that no ^32P labeled ATP was present and that after the reaction time was complete, samples were analyzed in a fluoromiter rather than blotted onto phosphocellulose paper.
(§2) Numbers prior to the sequence indicate amino acid position in the wild type GFP where the phosphorylation motif starts. The relative rates of phosphorylation compare the rate of phosphorylation of the given phosphorylation motif with the endogenous protein kinase A phosphorylation motif in Aequorea GFP (HKFSV) measured by incorporation of ^32P after incubation of the purified substrate and protein kinase A catalytic subunit in the presence of ^32P-labeled ATP using the standard protocols described above. The percentage change in fluorescence represents the change in fluorescence (488 nm excitation, 511 nm emission) observed in each purified protein as a result of incubation with excess protein kinase A catalytic subunit for one hour at 30° C. using phosphorylation conditions described above. […] To improve the effect of phosphorylation on fluorescence, amino acids around the phosphorylation site were mutated to create an optimal phosphorylation sequence even if it disordered the existing local tertiary structure. Such disruption was predicted and found to decrease the basal fluorescence of these constructs in their non-phosphorylated state (Table VI).
Numbers prior to the sequence indicate amino acid position in wild type GFP where the phosphorylation site starts. Negative numbers indicate extensions onto the wild-type N-terminus. The percent change in fluorescence represents the change in fluorescence (488 nm excitation, 511 nm emission) observed in each purified protein resulting from incubation with excess protein kinase A catalytic subunit for one hour at 30° C. using standard phosphorylation conditions described earlier.

[3] = biological target: T1, protein kinase A catalytic subunit; test: Relative rate of phosphorylation by protein kinase A, ^32P incorporation; assay type: biochemical; conditions: relative to endogenous PKA motif HKFSV; sites inserted at the N-terminus of S65T GFP
Description: as §1, §2

[4] = Fluorescent properties of mutants of Aequorea green fluorescent protein (Table I); assay type: physicochemical
Erk-1 kinase = Erk-1 kinase (Homo sapiens, UniProt P27361); test: Fluorescence change of Erk substrates after phosphorylation and acetate quench; assay type: biochemical; conditions: 2 μM GFP, 1 μg Erk-1 kinase, 1 hour at 30° C.; 3 hours in acetate quenching buffer pH 5.0
Chain of Erk-1 kinase (P27361 whole entry): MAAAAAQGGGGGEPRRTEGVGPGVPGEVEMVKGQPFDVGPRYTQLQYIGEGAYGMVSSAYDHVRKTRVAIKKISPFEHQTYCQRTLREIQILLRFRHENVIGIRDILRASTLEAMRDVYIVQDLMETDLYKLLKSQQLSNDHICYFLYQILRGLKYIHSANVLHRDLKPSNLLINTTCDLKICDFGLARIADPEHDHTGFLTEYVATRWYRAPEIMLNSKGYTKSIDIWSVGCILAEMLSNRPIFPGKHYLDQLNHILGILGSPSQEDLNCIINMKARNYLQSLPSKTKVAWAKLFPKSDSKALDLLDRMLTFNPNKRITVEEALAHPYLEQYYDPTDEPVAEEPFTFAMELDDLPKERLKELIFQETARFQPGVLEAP
Description: These experiments were performed by incubating the GFP sample (2 μM) with Erk-1 kinase (1 μg) for 1 hour at 30° C. in assay buffer (20 mM MOPS, pH 7.2, 25 mM beta-glycerol phosphate, 5 mM EGTA, 1 mM DTT, 1 mM ATP, 20 mM MgCl2). Reactions were quenched by the addition of acetate quenching buffer (100 μL of 100 mM Acetate pH 5.0, 100 mM NaCl, 20 mM beta-Glycerol phosphate). Fluorescence changes were measured after 3 hours of incubation in acetate quenching buffer. Results represent the means of triplicate determinations.

Molecule	^32P-Incorporation (CPM) [1] [CPM]	% Change in fluorescence [2] [%]	Relative rates of phosphorylation [3]	other results
Erk-5: GFP mutant K8 with Erk kinase motif Met Thr Gly Pro Leu Ser Pro Gly Tyr (MTGPLSPGY; not fully specified; printed as Met Thr Gly Pro Leu Ser Pro Gly Tyr)	6455 ± 558			
1IMRRRRSI1: S65T GFP with N-terminal phosphorylation site MRRRRSII (not fully specified (C-terminus); printed as 1IMRRRRSI1)				% Change in fluorescence upon phosphorylation [2]: 70%; % Change in fluorescence upon phosphorylation ([2]; listed as 1MRRRRSII): about 70%
1MSKRRDSL: GFP with N-terminal phosphorylation site MSKRRDSL; 7% of wild type fluorescence (not fully specified (C-terminus); printed as 1MSKRRDSL)		5.1	5.5	
−2MRRRRSIIIF: S65T GFP with N-terminal phosphorylation site MRRRRSIIIF, N-terminus extended by two (not fully specified (C-terminus); printed as −2MRRRRSIIIF)				% Change in fluorescence upon phosphorylation [2]: 15%
1MRDSCLF: S65T GFP with N-terminal phosphorylation site MRDSCLF (not fully specified (C-terminus); printed as 1MRDSCLF)		17	3.7	
1MRRESLLF: S65T GFP with N-terminal phosphorylation site MRRESLLF (not fully specified (C-terminus); printed as 1MRRESLLF)		6.0	3.0	
Erk-4: GFP mutant K8 with Erk kinase motif Met Thr Gly Pro Leu Ser Pro Gly Phe (MTGPLSPGF; not fully specified; printed as Met Thr Gly Pro Leu Ser Pro Gly Phe)	1982 ± 260			
1MRKGSLLF: S65T GFP with N-terminal phosphorylation site MRKGSLLF (not fully specified (C-terminus); printed as 1MRKGSLLF)		8.0	1.6	
Wild type: wild-type Aequorea green fluorescent protein, SEQ ID NO:2				Emission Max [4]: 508 nm; Excitation Max [4]: 395 nm; Extinction Coefficient [4]: 21,000 M − 1 cm − 1; Quantum Yield [4]: 0.77
Erk-6: GFP mutant K8 with Erk kinase motif Met Thr Gly Pro Leu Ser Pro Gly Leu (MTGPLSPGL; not fully specified; printed as Met Thr Gly Pro Leu Ser Pro Gly Leu)	22498 ± 381			Fold Increase in Fluorescence after Phosphorylation (Erk-1 kinase): 1.20 fold
Erk-1: GFP mutant K8 with Erk kinase motif Met Val Glu Pro Leu Thr Pro Ser Phe (MVEPLTPSF; not fully specified; printed as Met Val Glu Pro Leu Thr Pro Ser Phe)	1579 ± 282			
1MSRRDSCF: S65T GFP with N-terminal phosphorylation site MSRRDSCF (not fully specified (C-terminus); printed as 1MSRRDSCF)		25	2.1	
1MRKGSCLF: S65T GFP with N-terminal phosphorylation site MRKGSCLF (not fully specified (C-terminus); printed as 1MRKGSCLF)		5.7	5.1	
O=C(Nc1ccccc1-c1ccc(Cl)cc1)c1cccnc1Cl [Emerald]				Emission Max [4]: 508 nm; Excitation Max [4]: 487 nm
−1MRRRRSIII: S65T GFP with N-terminal phosphorylation site MRRRRSIII, N-terminus extended by one (not fully specified (C-terminus); printed as −1MRRRRSIII)				% Change in fluorescence upon phosphorylation [2]: 43%; % Change in fluorescence upon phosphorylation ([2]; listed as MRRRRSIII): about 70%
Erk-7: GFP mutant K8 with Erk kinase motif Met Thr Gly Pro Leu Ser Pro Gly Pro (MTGPLSPGP; not fully specified; printed as Met Thr Gly Pro Leu Ser Pro Gly Pro)	25502 ± 2077			Km ([1]; kinetic analysis): 15 µM; Fold Increase in Fluorescence after Phosphorylation (Erk-1 kinase): 1.05 fold

From patent US20080166749A1, “Fluorescent Protein Sensors of Post-Translational Modifications” (INVITROGEN CORPORATION, priority 1998, published 2008)
